# T1: RicF (YlbF) of Bacillus subtilis (B. subtilis, UniProt O34412 1-149)
# T1 construct: also called RicF^Bsu
# T1 sequence (looked up): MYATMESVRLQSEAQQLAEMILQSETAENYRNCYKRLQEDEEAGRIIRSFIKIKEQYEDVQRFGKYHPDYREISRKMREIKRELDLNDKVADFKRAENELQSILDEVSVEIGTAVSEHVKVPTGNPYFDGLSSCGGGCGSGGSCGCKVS
# B1: RicA residues 1 to 122 (C-terminally truncated, for crystallography) (domain or fragment, B. subtilis, UniProt O31779 1-122, looked up)
# chain: MTLYSKKDIVQQARNLAKMISETEEVDFFKRAEAQINENDKVSTIVNQIKALQKQAVNLKHYEKHEALKQVEAKIDALQEELEEIPVIQEFRDSQMEVNDLLQLVAHTISNQVTNEIITSTG
# notes: also called truncated RicA; RicA (amino acids 1 to 122)
# Tests used:
# [1] = molecular target: RicA of Bacillus anthracis (B. anthracis); experiment: AUC
# [2] = molecular target: T1, RicF (YlbF) of Bacillus subtilis; experiment: pull-down; settings: partners not purified
# [3] = molecular target: the molecule itself; experiment: SEC; […]; 20 mM Tris-HCl pH 8.0, 150 mM NaCl, 1 mM DTT
# crystal structure = molecular target: the molecule itself; experiment: crystal structure
# [4] = molecular target: B1; experiment: crystal structure; RicAF crystals; hanging drop, 18% PEG 500 MME, 8% MPD, 100 mM sodium nitrate, 100 mM MOPS, sodium HEPES pH 7.3; settings: both partners purified
molecule,measurement,setting,value
RicF of Bacillus anthracis (natural protein),stoichiometry N,[1],1
"RicA (YmcA) of Bacillus subtilis (natural protein, B. subtilis, UniProt O31779 1-143, looked up, also called RicA^Bsu) MTLYSKKDIVQQARNLAKMISETEEVDFFKRAEAQINENDKVSTIVNQIKALQKQAVNLKHYEKHEALKQVEAKIDALQEELEEIPVIQEFRDSQMEVNDLLQLVAHTISNQVTNEIITSTGGDLLKGETGSKVKHSNNSCSL",binding result,[2],binds
"RicA (YmcA) of Bacillus subtilis, expressed alone and purified (natural protein, B. subtilis, also called RicA dimer; GST-RicA) MTLYSKKDIVQQARNLAKMISETEEVDFFKRAEAQINENDKVSTIVNQIKALQKQAVNLKHYEKHEALKQVEAKIDALQEELEEIPVIQEFRDSQMEVNDLLQLVAHTISNQVTNEIITSTGGDLLKGETGSKVKHSNNSCSL",stoichiometry N,[3],2
B1,binding result,crystal structure,binds
"RicF residues 1 to 121 (C-terminally truncated, for crystallography) (domain or fragment, B. subtilis, UniProt O34412 1-121, looked up, also called truncated RicF) MYATMESVRLQSEAQQLAEMILQSETAENYRNCYKRLQEDEEAGRIIRSFIKIKEQYEDVQRFGKYHPDYREISRKMREIKRELDLNDKVADFKRAENELQSILDEVSVEIGTAVSEHVKV",binding result,[4],binds
